According to the RNAGym collection of RNA variant scans (doi:10.7554/elife.80360):

B1: HDV Ribozyme (parent)
chain: GGCCGGCAUGGUCCCAGCCUCCUCGCUGGCGCCGGCUGGGCAACAUUCCGAGGGGACCGUCCCCUCGGUAAUGGCGAAUGGGACCCA

Variants of: B1
Test: self-cleavage, relative activity (ratio to wild type); higher = more cleavage; co-transcriptional

Variant	self-cleavage
GGCCGGCAUGGUCCCAGCCUCCUCGCUGGCGCCGGCUGGGCAACUUUCCGAGGGGACGGUCCCCUCGGUAAUGGCGAAUGGGACCCA [A45U C58G]	0.712
GGCCGGCAUGGUCCCAGCCUCCUCGCUGGCGCCGGCUGGGCAACUUUCCGAGGGGACUGUCCCCUCGGUAAUGGCGAAUGGGACCCA [A45U C58U]	0.849
GGCCGGCAUGGUCCCAGCCUCCUCGCUGGCGCCGGCUGGGCAACGUUCCGAGGGUACCGUCCCCUCGGUAAUGGCGAAUGGGACCCA [A45G G55U]	0.888
GGCCGGCAUGGUCCCAGCCUCCUCGCUGGCGCCGGCUGGGCAACGUUCCGAGGGAACCGUCCCCUCGGUAAUGGCGAAUGGGACCCA [A45G G55A]	1.08
GGCCGGCAUGGUCCCAGCCUCCUCGCUGGCGCCGGCUGGGCAACGUUCCGAGGGCACCGUCCCCUCGGUAAUGGCGAAUGGGACCCA [A45G G55C]	1.04
GGCCGGCAUGGUCCCAGCCUCCUCGCUGGCGCCGGCUGGGCAACUUUCCGAGGGGACCGUCCACUCGGUAAUGGCGAAUGGGACCCA [A45U C63A]	0.784
GGCCGGCAUGGUCCCAGCCUCCUCGCUGGCGCCGGCUGGGCAACUUUCCGAGGGGACCGUCCUCUCGGUAAUGGCGAAUGGGACCCA [A45U C63U]	0.856
GGCCGGCAUGGUCCCAGCCUCCUCGCUGGCGCCGGCUGGGCAACUUUCCGAGGGGAUCGUCCCCUCGGUAAUGGCGAAUGGGACCCA [A45U C57U]	0.712
GGCCGGCAUGGUCCCAGCCUCCUCGCUGGCGCCGGCUGGGCAACUUUCCGAGGGGUCCGUCCCCUCGGUAAUGGCGAAUGGGACCCA [A45U A56U]	0.831
GGCCGGCAUGGUCCCAGCCUCCUCGCUGGCGCCGGCUGGGCAACUUUCCGAGGGGGCCGUCCCCUCGGUAAUGGCGAAUGGGACCCA [A45U A56G]	0.806
GGCCGGCAUGGUCCCAGCCUCCUCGCUGGCGCCGGCUGGGCAACGUACCGAGGGGACCGUCCCCUCGGUAAUGGCGAAUGGGACCCA [A45G U47A]	1.13
GGCCGGCAUGGUCCCAGCCUCCUCGCUGGCGCCGGCUGGGCAACGUUCCGAGGGGACCGUCCCCUCGGUAAUGGCAAAUGGGACCCA [A45G G76A]	0.959
GGCCGGCAUGGUCCCAGCCUCCUCGCUGGCGCCGGCUGGGCAACGUUCCGAGGGGACCGUCCCCUCGGUAAUGGCCAAUGGGACCCA [A45G G76C]	1.07
GGCCGGCAUGGUCCCAGCCUCCUCGCUGGCGCCGGCUGGGCAACGUUCCGAGGUGACCGUCCCCUCGGUAAUGGCGAAUGGGACCCA [A45G G54U]	1.17
GGCCGGCAUGGUCCCAGCCUCCUCGCUGGCGCCGGCUGGGCAACUUUCCGCGGGGACCGUCCCCUCGGUAAUGGCGAAUGGGACCCA [A45U A51C]	0.796
GGCCGGCAUGGUCCCAGCCUCCUCGCUGGCGCCGGCUGGGCAACUUUCCGGGGGGACCGUCCCCUCGGUAAUGGCGAAUGGGACCCA [A45U A51G]	0.965

Variant	self-cleavage
GGCCGGCAUGGUCCCAGCCUCCUCGCUGGCGCCGGCUGGGCAACGUUCCGAGCGGACCGUCCCCUCGGUAAUGGCGAAUGGGACCCA [A45G G53C]	1.05
GGCCGGCAUGGUCCCAGCCUCCUCGCUGGCGCCGGCUGGGCAACGUUCCGAGUGGACCGUCCCCUCGGUAAUGGCGAAUGGGACCCA [A45G G53U]	0.884
GGCCGGCAUGGUCCCAGCCUCCUCGCUGGCGCCGGCUGGGCAACUUUACGAGGGGACCGUCCCCUCGGUAAUGGCGAAUGGGACCCA [A45U C48A]	0.7
GGCCGGCAUGGUCCCAGCCUCCUCGCUGGCGCCGGCUGGGCAACUUUUCGAGGGGACCGUCCCCUCGGUAAUGGCGAAUGGGACCCA [A45U C48U]	0.79
GGCCGGCAUGGUCCCAGCCUCCUCGCUGGCGCCGGCUGGGCAACGUUCCGAGGGGACCGUCCCCUCGGUAAUGGCGAAUGGGAACCA [A45G C84A]	0.587
GGCCGGCAUGGUCCCAGCCUCCUCGCUGGCGCCGGCUGGGCAACGUUCCGAGGGGACCGUCCCCUCGGUAAUGGCGAAUGGGAGCCA [A45G C84G]	0.623
GGCCGGCAUGGUCCCAGCCUCCUCGCUGGCGCCGGCUGGGCAACGUUCCGAGGGGACCGUCCCCUCGGUAAUGGCGAAUGGGAUCCA [A45G C84U]	0.658
GGCCGGCAUGGUCCCAGCCUCCUCGCUGGCGCCGGCUGGGCAACUUUCCGAGGGGACCGUCCCCUCGGUAAUGGCGAAUGGGACCCA [A45U]	0.832
GGCCGGCAUGGUCCCAGCCUCCUCGCUGGCGCCGGCUGGGCAACUUUCCGAGGGGACCGUCCCCUCGGUAAUGGCGUAUGGGACCCA [A45U A77U]	0.322
GGCCGGCAUGGUCCCAGCCUCCUCGCUGGCGCCGGCUGGGCAACUUUCCGAGGGGACCGUCCCCUCGGUAAUGGCGCAUGGGACCCA [A45U A77C]	0.155
GGCCGGCAUGGUCCCAGCCUCCUCGCUGGCGCCGGCUGGGCAACUUUCCGAGGGGACCGUCCCCUCGGUAAUGGCGGAUGGGACCCA [A45U A77G]	0.609
GGCCGGCAUGGUCCCAGCCUCCUCGCUGGCGCCGGCUGGGCAACGUUCCGAGGGGACCCUCCCCUCGGUAAUGGCGAAUGGGACCCA [A45G G59C]	1.02
GGCCGGCAUGGUCCCAGCCUCCUCGCUGGCGCCGGCUGGGCAACGUUCCGAGGGGACCUUCCCCUCGGUAAUGGCGAAUGGGACCCA [A45G G59U]	0.931
GGCCGGCAUGGUCCCAGCCUCCUCGCUGGCGCCGGCUGGGCAACGUUCCGAGGGGACCGUCCCCUCGGUAAUGGCGAAUAGGACCCA [A45G G80A]	0.177
GGCCGGCAUGGUCCCAGCCUCCUCGCUGGCGCCGGCUGGGCAACUUUCCGAGGGGACCGUCCCCUCGGUACUGGCGAAUGGGACCCA [A45U A71C]	0.653
GGCCGGCAUGGUCCCAGCCUCCUCGCUGGCGCCGGCUGGGCAACUUUCCGAGGGGACCGUCCCCUCGGUAUUGGCGAAUGGGACCCA [A45U A71U]	1.01
